Reference: patent US6514942B1, “Methods and compositions for stimulating T-lymphocytes” (The Board of Regents, The University of Texas System, priority 1995, dated 2003)
Entries after “also recorded” stand apart in the source; their conditions may differ.

What was measured:
three HLA-A2+ CTL lines = experiment: Recognition of nonapeptides by CTLs associated with and lysing ovarian tumors; type: cell-based, human; conditions: for CTL lines recognizing the peptide: of three HLA-A2+ CTL lines; for designation based on the levels of lysis induced: three HLA-A2+ CTL lines
CTL-34 = experiment: Recognition of HER-2 peptides by ovarian tumor associated CTL (lysis of peptide-sensitized targets); type: cell-based, human
Method: Target cells were labeled with ^51Cr (Na^51CrO4; Amersham, Arlington Heights, Ill.) for 90 min at 37° C. (Ioannides et al., 1991; Ioannides et al., 1991), or overnight in RPMI medium, containing 10% FCS, 100 μg/ml L-glutamine and 40 μg/ml gentamycin (RPMI-FCS), then washed and incubated with the effector cells in complete RPMI-FCS in an incubator with 5% CO2. Targets were incubated either with 25 μM of peptide overnight during labeling, or with 10 μM peptide for 2 h at 37° C. in RPMI-FCS, then washed three times before being incubated with effector cells. Separate controls for spontaneous and total lysis of targets were made for each peptide pulsed target (Ioannides et al., 1993; Fisk et al., 1994; Gammon et al., 1992). After 4-5 h of incubation 100 μl of supernatant were collected and counted. Percent lysis was calculated from the formula: 100×[(E−S)/(T−S)], were E=experimental release, S=release in the absence of CTL, T=release in 2 M HCl.
C1R:A2 cells [1] = experiment: Ag specificity of the 41.CD8+ CTL line on peptide-pulsed targets; type: cell-based, human; conditions: peptide-pulsed C1R:A2, E:T 10:1
Method: FIG. 2A. Ag specificity of the 41.CD8^+ CTL line. C1R:A2 cells were pre-pulsed with either HER-2 peptides or control MUC-1 peptides before being incubated with effectors. The effector to target ratio was 10:1. C1R:A1 and C1R:A3 targets were pre-pulsed with the same peptides in the same conditions as C1R:A2 cells. Results for C1R:A1 and C1R:A3 show the difference between specific lysis of targets preincubated with peptides and control C1R:A1 and C1R:A3 targets. Specific lysis of control C1R:A1 and C1R:A3 cells was less than 10% at the same E:T ratio. Shown in FIG. 2A are results after 4 hrs' incubation.
(§1) Tumor cells and fibroblasts were labeled with 200 μCi of ^51Cr (Na^51CrO4; Amersham, Arlington Heights, Ill.) for 90 min at 37° C. (Ioannides et al., 1991). Lymphoblastoid cells and HLA-A2 transfectants were labeled overnight in RPMI-FCS, then washed three times and incubated with effector cells in RPMI-FCS in an incubator with 5%. CO2 (Bednarek et al., 1991; Gammon et al., 1992). When peptide recognition was determined, targets were incubated with 25 μM of peptides overnight during ^51Cr labeling or with 10 μM peptide for 2 h at 37° C. in RPMI-FCS then washed three times before being incubated with effector cells. Separate controls for spontaneous and total lysis were made for each peptide-pulsed target (Ioannides et al., 1991; Bednarek et al., 1991; Gammon et al., 1992). After 4-5 h, 100 μl of supernatant was collected and counted. To determine maximum lysis in 20-h assays, plates were left undisturbed in the incubator and the supernatant was collected after overnight incubation. For cold target inhibition studies, C1R:A2 cells were preincubated with HER-2 or control peptides overnight, then washed and admixed with ^51Cr-labeled targets at 2:1 and 6:1 (cold:hot targets) ratios. Percentage lysis was calculated from the formula: 100×[(E−S)/(T−S)], where E is experimental release, S is release in the absence of CTL, and T is release in 2 M HCl.
These cultures were propagated and expanded by periodic cycles of restimulation with peptide-pulsed fresh autologous PBMC as antigen-presenting cells. After the fourth stimulation cells were gradually adapted to growth in RPMI-FCS by replacing 25% of the culture medium every 3 days with RPMI-FCS over a period of 2 weeks. CD3^+CD8^+CD4^− cells were isolated from bulk CTL cultures by positive selection on anti-CD8 mAb-coated culture flasks (AIS Micro CELLector, Applied Immune Sciences, Menlo Park, Calif.) as described (Letessier et al., 1991). Isolated CD8^+ cells were restimulated with HER-2 peptide-pulsed PBMC, either autologous or in some instances allogeneic that matched only HLA-A2 with the responding cells. […]

HLA-A2 of T2 cells = target: T1, HLA-A2 of T2 cells (Homo sapiens, UniProt P04439, D140Y/D185E/D98H/E176V/E277Q/G131W/G231S/I119V/I121R/I166T/I218V/L300P/L318F/N151K/N90K/P208A/P217A/Q86G/Q94H/R138H/R169H/T345S); experiment: Reactivity of MA2.1 mAb with T2 cells after culture with peptide (immunofluorescence, FL1); type: cell-based; conditions: for FL1 of T2 cells stained with MA2.1 mAb: peptide 50 μg/ml, overnight culture in IMDM-FCS; for reactivity of MA2.1 mAb with HLA-A2: study repeated with peptides dissolved in DMSO
T1 construct: cell surface expression of HLA-A2 is lower (30-40%) than in normal LBL lines transfected with HLA-A2; endogenous in cells; host or cells: T2 (transport deletion mutant) human lymphoblastoid cells, obtained from Dr. Peter Creswell
Method: FIG. 5A. Effects of HER-2 peptides on reactivity of MA2.1 mAb with T2 cells. Fluorescence analysis and determination of FL1 were performed as described (Stauss et al., 1992). Peptides were added to T2 cells at 50 μg/ml (final concentration). After overnight culture, in IMDM-FCS, cells were washed and the levels of HLA-A2 expression were determined using HLA-A2 specific mAb.
mAbs to CD3 (OKT3-FITC), CD4 (OKT4-FITC) and CD8 (OKT8-FITC) were obtained from Ortho Diagnostic (Ortho, Raritan, N.J.), mAb W6/32 (anti-HLA, -A, -B, -C) from Dako (Dako-Dakopatts, Denmark); HLA-A2 reacting mAb BB7.2 and MA2.1 from ATCC. Immunofluorescence studies were performed as described in Example 1.
To determine whether these peptides and longer analogs affect HLA-A2 conformation as an indication of HLA-A2 binding, the effects of HER-2 peptides on the reactivity of conformationally dependent mAb MA2.1 and BB.7.2 were examined with HLA-A2 of T2 cells. The human cell line T2 has a defect affecting endogenous peptide loading of MHC class I molecules. As a consequence, cell surface expression of HLA-A2 is lower (30-40%) than in normal LBL lines transfected with HLA-A2 (e.g., C1R) but the reactivity of MA2.1 and BB.7.2 mAb is increased when certain HLA-A2 binding peptides are added to the culture medium (Anderson et al., 1993). Although most human MHC class I molecules cannot be induced at the low temperatures used for their murine counterparts because of fundamental structural differences between human and mouse class I (Anderson et al., 1993), the fact that they express few endogenous (mainly signal) peptides (Zweerink et al., 1993) increases the sensitivity of detection of peptide-HLA-A2 interaction.

C1R:A2 cells [2] = experiment: In vitro induction of peptide-reactive CTL from PBMC, 51Cr release on peptide-pulsed C1R:A2; type: cell-based, human; conditions: PBMC stimulated with the peptide
[3] = target: T2, HLA-A2 on indicator T2 cells (Homo sapiens, UniProt P04439, D140Y/D185E/D98H/E176V/E277Q/G131W/G231S/I119V/I121R/I166T/I218V/L300P/L318F/N151K/N90K/P208A/P217A/Q86G/Q94H/R138H/R169H/T345S); experiment: Stabilization of HLA-A2 expression on indicator line T2; type: cell-based; conditions: indicator T2 cells
T2 construct: cell surface expression of HLA-A2 is lower (30-40%) than in normal LBL lines transfected with HLA-A2; endogenous in cells; host or cells: T2 (transport deletion mutant) human lymphoblastoid cells, obtained from Dr. Peter Creswell
Excerpt: Since HER-2 is a self-antigen, during thymic selection, a number of T-cells carrying receptors with high affinity for the HLA-peptide complex are silenced either by elimination ro tolerization. A pre-condition for induction of a high affinity TCR-(MHC+peptide) interactions, is a stable (MHC+peptide) complex. […] However, stabilization of HLA-Class I binding by exogenously added peptide is dependent on introduction of dominant anchors in positions P2 and P9 which are not recognized by TCR.
Peptide D113, […] (SEQ ID NO:17), is the natural nonapeptide […].

[4] = test system: OVA-16 (HLA-A2+, HER-2high) ovarian tumor; experiment: Cold target inhibition of OVA-16 lysis by 41.CD8+ CTL with peptide-pulsed C1R:A2 cells; type: cell-based, human; conditions: cold:hot 2:1, E:T 10:1, 4- and 20-h assays
Method: (§2) FIG. 4A. Target specificity of the 41.CD8^+ CTL were tested for the ability to lyse 5^1Cr-labeled OVA-16 at an E:T ratio of 10:1. C1R:A2 cells (A2.1) were incubated with synthetic peptides (D125, C43, C85), washed, and used in cold target inhibition studies at a cold:hot ratio of 2:1. Cytotoxicity studies were performed for 5 hr. Results represent the mean of three determinations. The variability between samples was less than 10%. The differences between determination are statistically significant (P<0.03) as determined by Student's t test. Percentage inhibition is indicated in parentheses.
as §2, with “FIG. 4B.” for “FIG. 4A.”, “lyse ^51Cr-labeled” for “lyse 5^1Cr-labeled”, “for 20” for “for 5”
as §1
To confirm that the 41.CD8^+ CTL line recognizes epitopes on HER-2^high tumors contained on peptides used for stimulation, cold target inhibition studies were performed. […]

QLMPYGCLL [Peptide E71, HER-2:798-806]
CTL lines recognizing the peptide (three HLA-A2+ CTL lines): 2/3 | designation based on the levels of lysis induced (three HLA-A2+ CTL lines): high | % of C85 (target lysis by CTL in the presence of peptide as % of positive control C85) (CTL-34): 0.600 % of C85

SLADPAHGV [Peptide D132, control analog of Muc-1 core peptide with introduced P2 anchor, reference compound]
recognition by 41.CD8+ CTL line (C1R:A2 cells [1]): at a much lesser extent

PLQPEQLQV [Peptide E77, HER-2:391-399]
CTL lines recognizing the peptide (three HLA-A2+ CTL lines): 2/3 | designation based on the levels of lysis induced (three HLA-A2+ CTL lines): moderate | % of C85 (target lysis by CTL in the presence of peptide as % of positive control C85) (CTL-34): 0.300 % of C85

QLQVFETLEEI [Peptide D122, HER-2:396-406]
FL1 of T2 cells stained with MA2.1 mAb (HLA-A2 of T2 cells): increased the FL1 only slightly

EIWTHSTKV [Peptide E39, reference compound]
FL1 of T2 cells stained with MA2.1 mAb (HLA-A2 of T2 cells): moderate increase in FL1

GLYQGCQVV [Peptide D115, HER-2:48-56(48H→G) analog]
FL1 of T2 cells stained with MA2.1 mAb (HLA-A2 of T2 cells): increased FL1 even further; also recorded: higher increase in reactivity of MA2.1 mAb with HLA-A2 than D96/D97 | reactivity of MA2.1 mAb with HLA-A2 (HLA-A2 of T2 cells): unable to increase reactivity | Ag specificity of CTL response induced by the peptide (C1R:A2 cells [2]): less specific CTL than D96/D97 | stabilization of HLA-A2 [3]: significantly higher improvement

DLGMGAAKGL [Peptide D99, decapeptide HER-2:1089-1098]
FL1 of T2 cells stained with MA2.1 mAb (HLA-A2 of T2 cells): slight increase in FL1

LLSLALMLL [Peptide E41, reference compound]
FL1 of T2 cells stained with MA2.1 mAb (HLA-A2 of T2 cells): failed to induce an increase in FL1

RLLYQGCQVV [Peptide D114, HER-2:47-56(48H→L) analog]
FL1 of T2 cells stained with MA2.1 mAb (HLA-A2 of T2 cells): increased FL1 even further; also recorded: higher increase in reactivity of MA2.1 mAb with HLA-A2 than D96/D97 | reactivity of MA2.1 mAb with HLA-A2 (HLA-A2 of T2 cells): unable to increase reactivity | Ag specificity of CTL response induced by the peptide (C1R:A2 cells [2]): lacked Ag specificity | stabilization of HLA-A2 [3]: little improvement on stabilization of HLA-A2

ELVSEFSKV [Peptide C83, C85 analog with strengthened P9 and P8]
FL1 of T2 cells stained with MA2.1 mAb (HLA-A2 of T2 cells): did not increase further the FL1

LQVFETLEEITGYL [Peptide D120, HER-2:397-410]
FL1 of T2 cells stained with MA2.1 mAb (HLA-A2 of T2 cells): increased the FL1 only slightly

RIAWARTEL [Peptide E37, reference compound]
FL1 of T2 cells stained with MA2.1 mAb (HLA-A2 of T2 cells): failed to affect MA2.1 epitope expression

NLGPWIQQV [Peptide E38, reference compound]
FL1 of T2 cells stained with MA2.1 mAb (HLA-A2 of T2 cells): very high increase in FL1

VLVKSPNHV [Peptide E89, HER-2:851-859]
CTL lines recognizing the peptide (three HLA-A2+ CTL lines): 2/3 | designation based on the levels of lysis induced (three HLA-A2+ CTL lines): high | % of C85 (target lysis by CTL in the presence of peptide as % of positive control C85) (CTL-34): 1.149 % of C85

GLTSAPDTRV [Peptide D125, control analog of Muc-1 core peptide (Muc-1:8-17) with introduced HLA-A2 anchors, reference compound]
recognition by 41.CD8+ CTL line (C1R:A2 cells [1]): at a much lesser extent | inhibition of tumor lysis by peptide-pulsed cold targets [4]: inability of C1R:A2 cells alone or pulsed with D125 to mediate the same inhibition

LVSEFSRMARDPQ [Peptide B69, HER-2:972-984]
FL1 of T2 cells stained with MA2.1 mAb (HLA-A2 of T2 cells): failed to significantly increase FL1

SLALMLLWL [Peptide E40, reference compound]
FL1 of T2 cells stained with MA2.1 mAb (HLA-A2 of T2 cells): failed to induce an increase in FL1

CLTSTVQLV [Peptide E90, HER-2:788-796]
% of C85 (target lysis by CTL in the presence of peptide as % of positive control C85) (CTL-34): 1.149 % of C85
